Experimental data taken from paper PMC12055985 (Nature Communications, 2025).

Tests used:
[1] = target: Nb32-Fc (camel); assay: SPR
[2] = target: Nb14-Fc (camel); assay: SPR

Row | Binder | Kd [1] [nM] | Kd [2] [nM]
1 | HSV-1 gD (aa1-275) with C-terminal His tag (domain or fragment) KYALADASLKMADPNRFRGKDLPVLDQLTDPPGVRRVYHIQAGLPDPFQPPSLPITVYYAVLERACRSVLLNAPSEAPQIVRGASEDVRKQPYNLTIAWFRMGGNCAIPITVMEYTECSYNKSLGACPIRTQPRWNYYDSFSAVSEDNLGFLMHAPAFETAGTYLRLVKINDWTEITQFILEHRAKGSCKYALPLRIPPSACLSPQAYQQGVTVDSIGMLPRFIPENQRTVAVYSLKIAGWHGPKAPYTSTLLPPELSETPNATQPELAPEDPED | 0.0367 | 1.14
2 | HSV-2 gD (aa1-275) with C-terminal His tag (domain or fragment) KYALADPSLKMADPNRFRGKNLPVLDQLTDPPGVKRVYHIQPSLEDPFQPPSIPITVYYAVLERACRSVLLHAPSEAPQIVRGASDEARKHTYNLTIAWYRMGDNCAIPITVMEYTECPYNKSLGVCPIRTQPRWSYYDSFSAVSEDNLGFLMHAPAFETAGTYLRLVKINDWTEITQFILEHRARASCKYALPLRIPPAACLTSKAYQQGVTVDSIGMLPRFIPENQRTVALYSLKIAGWHGPKPPYTSTLLPPELSDTTNATQPELVPEDPED | 0.0434 | 0.0831
